Laboratory results from paper PMC5538626, “Structural and functional analysis of the GABARAP interaction motif (GIM)” (EMBO Reports, 2017).

Experiments:
[1] = molecular target: GABARAP (for ITC and NMR) (human) (UniProt O95166); assay: ITC; peptide 0.4 mM titrated into 0.020 mM LC3/GABARAP protein in 26 steps, 25°C; 50 mM Na2HPO4, 100 mM NaCl, pH 7.0; one-site model
[2] = molecular target: LC3B (for ITC and NMR) (human) (UniProt Q9GZQ8); assay: as above

Chain of GABARAP (for ITC and NMR) (human) (O95166 whole entry): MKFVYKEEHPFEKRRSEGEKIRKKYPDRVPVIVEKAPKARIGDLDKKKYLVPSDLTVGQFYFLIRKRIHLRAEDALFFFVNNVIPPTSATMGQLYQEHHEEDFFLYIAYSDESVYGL

| Ka [1] [M⁻¹] | Kd [1] [µM] | dH [1] [kcal/mol] | stoichiometry N [1] | Ka [2] [M⁻¹] | Kd [2] [µM] | dH [2] [kcal/mol] | stoichiometry N [2] | Substance |
| --- | --- | --- | --- | --- | --- | --- | --- | --- |
| 130000 | 7.75 | -6.7 | 1.17 | 20000 | 50 | -1.4 |  | PLEKHM1‐LIR N637G peptide (ITC) (from UniProt Q9Y4G2 629-642) |
| 1.13e+07 | 0.09 | -9.2 | 1.07 | 3.03e+06 | 0.33 | -7.9 | 1.06 | PLEKHM1‐LIR VNV‐CIL peptide (ITC) (from UniProt Q9Y4G2 629-642) |
